Measured values: article PMC4309443

Columns and labels:
[1] = target: truncated Importin α1 (residues 71–497) (UniProt P52292); assay: ITC; MicroCal iTC200, 25 °C; 1.5 mM TAF8 peptide injected into 39 μM Importin α1; 25 mM Tris-HCl pH 8.0, 150 mM NaCl, 1 mM β-mercaptoethanol; one-site model; duplicates
[2] = target: recombinant human TAF2, full length (human); assay: native MS; TAF2–8–10 in 500 mM ammonium acetate pH 7.5, Q-ToF II, collision-induced dissociation
[3] = target: recombinant human TAF2, full length (human); assay: AUC; sedimentation velocity, absorbance at 280 nm, 42,000 r.p.m., 10 °C; c(s) analysis with Sedfit
[4] = target: recombinant human TAF8, full length (human) (UniProt Q7Z7C8); assay: as above
[5] = target: recombinant human TAF2, full length (human); assay: SPR; BIACORE 3000, 25 °C; TAF2 amine-coupled to CM5 (2,500 RU); MBP–TAF8 analytes at 500 nM; 25 mM HEPES-NaOH pH 7.0, 300 mM NaCl, 0.01% NP-40

How did the Kd [1] turn out when “TAF8 NLS peptide used for ITC (printed as residues 288–310)” was run?
The Kd was 10.4 µM.

And the dH [1]?
Its dH is -18.5 kcal/mol.

And the stoichiometry N [1]?
The stoichiometry N was 1.

“TAF8–10 complex (full-length TAF8 and TAF10) (from UniProt Q7Z7C8-1 1-310)” was tested. Which stoichiometry N [2] did it give?
Its stoichiometry N is 1.

What about the stoichiometry N [3] of the same molecule?
Its stoichiometry N is 1.

“recombinant human TAF10, full length (natural protein)” was tested. Which stoichiometry N [4] did it give?
Its stoichiometry N is 1.

B1: MBP–TAF8 (residues 105–260) (domain or fragment)
chain: DTLPAYAKRSQRMVITAPPVTNQPVTPKALTAGQNRPHPPHIPSHFPEFPDPHTYIKTPTYREPVSDYQVLREKAASQRRDVERALTRFMAKTGETQSLFKDDVSTFPLIAARPFTIPYLTALLPSELEMQQMEETDSSEQDEQTDTENLALHISM
Which maximal association level [5] does the source give for B1 here?
The maximal association level was < 10 RU.

B2: MBP–TAF8 (residues 200–310) (domain or fragment)
chain: TQSLFKDDVSTFPLIAARPFTIPYLTALLPSELEMQQMEETDSSEQDEQTDTENLALHISMEDSGAEKENTSVLQQNPSLSGSRNGEENIIDNPYLRPVKKPKIRRKKSLS
With B2 as the molecule, how does the maximal association level [5] read?
Its maximal association level is < 10 RU.

B3: MBP–TAF8 (residues 105–310) (domain or fragment)
chain: DTLPAYAKRSQRMVITAPPVTNQPVTPKALTAGQNRPHPPHIPSHFPEFPDPHTYIKTPTYREPVSDYQVLREKAASQRRDVERALTRFMAKTGETQSLFKDDVSTFPLIAARPFTIPYLTALLPSELEMQQMEETDSSEQDEQTDTENLALHISMEDSGAEKENTSVLQQNPSLSGSRNGEENIIDNPYLRPVKKPKIRRKKSLS
How did the maximal association level [5] turn out when B3 was run?
The maximal association level was 85 RU.

B4: MBP–TAF8 (residues 141–310) (domain or fragment)
chain: PHPPHIPSHFPEFPDPHTYIKTPTYREPVSDYQVLREKAASQRRDVERALTRFMAKTGETQSLFKDDVSTFPLIAARPFTIPYLTALLPSELEMQQMEETDSSEQDEQTDTENLALHISMEDSGAEKENTSVLQQNPSLSGSRNGEENIIDNPYLRPVKKPKIRRKKSLS
Which maximal association level [5] does the source give for B4 here?
The maximal association level was 40 RU.
